Molecular target: human Siglec-15, full length, expressed on cells (human) (UniProt Q6ZMC9)
Assay: flow cytometry, THP-1 cells overexpressing human Siglec-15, ADC titrated, anti-human IgG-PE, gMFI

human Siglec-15, full length, expressed on cells (human), sequence (Q6ZMC9 20-328 limits assumed): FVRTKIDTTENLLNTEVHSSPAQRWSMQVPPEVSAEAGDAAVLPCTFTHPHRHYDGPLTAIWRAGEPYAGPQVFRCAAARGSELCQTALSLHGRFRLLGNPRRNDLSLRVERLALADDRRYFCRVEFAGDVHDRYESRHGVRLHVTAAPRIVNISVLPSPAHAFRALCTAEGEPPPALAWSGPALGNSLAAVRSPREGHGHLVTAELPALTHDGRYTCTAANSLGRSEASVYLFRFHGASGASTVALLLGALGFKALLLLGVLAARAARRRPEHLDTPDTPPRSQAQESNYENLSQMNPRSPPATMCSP

B1: ZLA-1243-E01-Exatecan (protein)
VH: QVQLVQSGGGLVQPGRSLRLSCAASGFTFDDYAMHWVRQAPGKGLEWVSGISWNSGSIGYADSVKGRFTISRDNAKNSLYLQMNSLRAEDTALYYCAKGLWPSYDLDAFDIWGQGTMVTVSS
VL: QSALTQPASVSGSPGQSITLSCTGTSSDVGAYNFVSWYQQHPGTAPKLMIYEVSNRPSGVSDRFSGSKSGNTASLTISGLQAEDEADYYCSSYTSTIPPFVFGTGTKVTVL
modifications: Antibody-drug conjugate: exatecan payload joined through an MC-GGFG linker. The attachment residues are not stated and the letters cannot carry the payload.
- EC50 (read off the curve): 3 nM

Source: patent US20250361297A1, “ANTI- SIGLEC-15 BINDING MOLECULES AND METHODS OF USE” (ADAPTAM THERAPEUTICS, S.L., priority 2024, published 2025)
